Where a chain is given by its changes, count along the chain named.
Key:
[1] = system: T1, dCas12j-8 E258R+D142R E258R;D142R;D369A;E567A;D658A (bacteriophage (metagenome)); conditions: HEK293T cells; panel 1d (compare within a panel only); scale: mean GFP / mean GFP of wild type, printed, no background subtraction
T1 sequence: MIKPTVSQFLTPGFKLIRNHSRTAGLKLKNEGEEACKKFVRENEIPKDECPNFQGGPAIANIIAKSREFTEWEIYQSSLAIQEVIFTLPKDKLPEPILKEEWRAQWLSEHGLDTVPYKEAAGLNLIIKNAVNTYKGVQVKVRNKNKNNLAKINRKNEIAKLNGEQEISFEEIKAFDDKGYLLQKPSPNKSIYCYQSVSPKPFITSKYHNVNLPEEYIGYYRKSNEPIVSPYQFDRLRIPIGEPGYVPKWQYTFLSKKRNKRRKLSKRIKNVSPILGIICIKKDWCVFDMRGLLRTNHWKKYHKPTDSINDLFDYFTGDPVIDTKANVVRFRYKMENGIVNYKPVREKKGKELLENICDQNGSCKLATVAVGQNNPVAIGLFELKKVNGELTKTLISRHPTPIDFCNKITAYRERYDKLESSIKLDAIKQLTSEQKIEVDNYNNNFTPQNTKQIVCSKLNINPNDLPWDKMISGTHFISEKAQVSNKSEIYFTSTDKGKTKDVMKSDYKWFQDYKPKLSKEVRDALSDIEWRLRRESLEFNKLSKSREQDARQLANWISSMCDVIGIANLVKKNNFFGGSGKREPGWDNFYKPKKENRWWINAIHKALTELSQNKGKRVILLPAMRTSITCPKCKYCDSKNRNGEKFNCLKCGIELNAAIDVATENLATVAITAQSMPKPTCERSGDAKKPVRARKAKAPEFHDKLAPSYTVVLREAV

[2] = system: T2, dCas12j-8 E258R+D495R E258R;D495R;D369A;E567A;D658A (bacteriophage (metagenome)); conditions: HEK293T cells; panel 1d (compare within a panel only); scale: mean GFP / mean GFP of wild type, printed, no background subtraction
T2 sequence: T1 sequence with R142D, D495R

[3] = system: T3, dCas12j-8 E258R+D523R E258R;D523R;D369A;E567A;D658A (bacteriophage (metagenome)); conditions: HEK293T cells; panel 1d (compare within a panel only); scale: mean GFP / mean GFP of wild type, printed, no background subtraction
T3 sequence: T1 sequence with R142D, D523R

[4] = system: T4, dCas12j-8 E547R E547R;D369A;E567A;D658A (bacteriophage (metagenome)); conditions: HEK293T cells; panel 1c (compare within a panel only); scale: mean GFP / mean GFP of wild type, printed, no background subtraction
T4 sequence: T1 sequence with R142D, R258E, E547R

“CUUUCAAGACUAAUAGAUUGCUCCUUACGAGGAGACACUCCCUAUCAGUGAUAGAG / TTNACTCCCTATCAGTGATAGAG / CTCTATCACTGATAGGGAGTNAA [TetO]” was tested, and the binding signal [1] was 1.87, the binding signal [2] was 3.18 and the binding signal [3] was 2.67. It also gave a binding signal [4] of 1.22.

From article PMC12412624, “Engineered Cas12j‐8 is a Versatile Platform for Multiplexed Genome Modulation in Mammalian Cells”
